Binding data for 17 sequences are collected here from article PMC7105676.

For the data set, the target named is T1, FlhF-His6 (Campylobacter jejuni 81-176?) (UniProt O52908).
T1 sequence: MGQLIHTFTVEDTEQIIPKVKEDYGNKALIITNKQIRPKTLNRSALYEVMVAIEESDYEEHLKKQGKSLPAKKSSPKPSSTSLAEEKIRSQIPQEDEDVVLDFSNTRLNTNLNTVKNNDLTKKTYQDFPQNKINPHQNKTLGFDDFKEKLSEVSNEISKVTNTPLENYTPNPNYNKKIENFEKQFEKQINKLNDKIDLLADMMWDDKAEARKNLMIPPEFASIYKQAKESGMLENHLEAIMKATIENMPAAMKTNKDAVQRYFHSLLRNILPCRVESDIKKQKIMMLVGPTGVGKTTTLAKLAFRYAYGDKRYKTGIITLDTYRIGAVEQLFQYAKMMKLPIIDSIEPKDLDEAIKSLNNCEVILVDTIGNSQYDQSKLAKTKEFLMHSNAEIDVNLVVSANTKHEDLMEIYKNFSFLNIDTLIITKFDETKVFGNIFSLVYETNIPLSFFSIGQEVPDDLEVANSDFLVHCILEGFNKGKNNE
Nature of the data set: EMSA.

With “AAGCTCTATCAAAAGAAGTTTTAAAAACGCATCCTTATCTAAGGTAGCGTTTGGATTGCTCACTATTCCTGAGCTACTGCTTGAATCTGTTCTAGTTGTCCCACTAGTACTTCCTGAAGAAGTAGTACCTGAAGTTGTAGCAGTGGTATTTAAATTCCAATCCGATGATGATATCATTATAAACTCCTTTTTATTTAGTTTTTTATTATTTAAGCAATAAGTGTTCCAATTATCGTCGACCTGCAGGCA (double strand) [fliK promoter]”, the binding result is on record as “no binding”.
The value for “AATTCATCCTAAGCCTTTTAAAAAATTTCTGCTATGGTATCCAATTTGCGCTTAATTTTGAATTTACTTTTTTTTAAGTATAATAAATTATCGCATTTTGTTCGCCAAATTCCACGGTAAAACGCAAGGGTAAAATTTTGACATAAGTTTCGCTTTGGGCATGTAATAAGTCAGTATTAACAATATCCTTAACACTGATTCTAGCTCCATCGTCGACCTGCAGGCA (double strand) [flgR promoter]” was “no binding”.
As for “ATAACGCCATTAATCCCCACTACACCACTTTTACACATATCTTCAGAAATAGCTCTTCTTTTCGTGATATTAACTACATTTAAAAATTTATCTACTCTCATAAAAGCAATTTTAGCAAAAAAAATCAATTTTTGGAACAAAATTTGCTTATGCCTTTGCTTTATTTTTTAAGAAAATAGCAAGTAAAAACTTTTCTTTAATGAAATTTGGATACAATTTTACAATTTTCAAATCTATTTTAACAAAGGATATCGTCGACCTGCAGGCA (double strand) [rpoN promoter]”, the binding entry is given as “no binding”.
Turning to “CTTTTAAATCCTTTCAAAATATTGCATCGAAAAGATTAAAGCAAGAAGTGTTCCAAGTTTTAATTTGATTAAAAATTTTAAAGCTTATAAATAAAAAGCCTAGTATTTAAACTAGGCTTGGATTTGTATAAATTGCAGCATTCTTAAAAGAATGTAAAGTGATTTTAAGATTTAACTATTGTAATCGTCGACCTGCAGGCA (double strand) [flaB promoter]”, the binding entry is “no binding”.
The value for “TCATTTATCATTCCTCTAATAAAATCTTAAAATCATTCAAATCAAGTAAAAGCAAATTCTGTTCGCATATTTTATCAAATTCCTTGCTAAAACCATTTTTTGAGATTATAATGTAATAATTTGGAGCCAAATTTAAAGACTTTGCTTTTGATTTTAAAAGATTTAAAATATTTTTACAAATTTTTTTATTTTATCGTCGACCTGCAGGCA (double strand) [flgS promoter]” was “binds”; that for “TGCCTGCAGGTCGACGATAAATATCGACCTAAAGCGTAAATTTTATACCTTAAAAAGAAAAAATTATAATTTTAACAGAGCTTTAGAAAAATTTGAAAAAATATTCAAATCATAAACATAATAACCGATTTATATAGAAAGTTAAGCAATTTTTAGATAAAATCCAAAGCTTATATAAATTTCAAGGATAATCAA (double strand) [rpoD promoter]” was “binds”.
Consider “TGCCTGCAGGTCGACGATAAGAAATTTGGATCAACTAGCTTAAGCTTTTACGCTTCTTAACTTACTTGGAACACTTCTTGCTTGATCTATCATCAACAATAGATTAAAGGAAGAATCCA (double strand) [PflgI fragment 4]”, for which the binding result is “binds”.
For “TGCCTGCAGGTCGACGATAATTTAATCATTTTTGAACACCACTCAACCATAAAAACTCCCGAAAAAATCCAAAATTTTCAAAAAGTCAAAGAAAAGAAATTTGGATCAACTAGCTTAAGCTTTTACGCTTCTTAACTTACTTGGAACACTTCTTGCTTGATCTATCATCAACAATAGATTAAAGGAAGAATCCA (double strand) [PflgI fragment 1]” the value was “binds”; for “TGCCTGCAGGTCGACGATACCAGTTTCACCACTCGGGCTCATTTTTAAGATTTAAAGCTAAAATTATACTTTTTTAGGCTAAAAAATAACTTTAAAAATAAAAAGTATTTTCAAAAAGACGATATAAAATTATATAATTTAAATTTTTGGAACAGTTATTGCTTTTGTTTATTAGCAATATTTGAAAAGATTTTAACTTTAATACTTTAGAGGAAA (double strand) [flgL promoter]”, “no binding”.
For “TGCCTGCAGGTCGACGATAGAAAATTTAGATTTAAAGACTTTAAATTTAATCATTTTTGAACACCACTCAACCATAAAAACTCCCGAAAAAATCCAAAATTTTCAAAAAGTCAAAGAAAAGAAATTTGGATCAACTAGCTTAAGCTTTTACGCTTCTTAACTTACTTGGAACACTTCTTGCTTGATCTATCATCAACAATAGATTAAAGGAAGAATCCA (double strand) [flgI promoter (PflgI, 201 bp)]” the value was “binds”; for “TGCCTGCAGGTCGACGATCAACCATAAAAACTCCCGAAAAAATCCAAAATTTTCAAAAAGTCAAAGAAAAGAAATTTGGATCAACTAGCTTAAGCTTTTACGCTTCTTAACTTACTTGGAACACTTCTTGCTTGATCTATCATCAACAATAGATTAAAGGAAGAATCCA (double strand) [PflgI fragment 2]”, “binds”.
“TGCCTGCAGGTCGACGATGCTTTTACGCTTCTTAACTTACTTGGAACACTTCTTGCTTGATCTATCATCAACAATAGATTAAAGGAAGAATCCA (double strand) [PflgI fragment 5]”: the binding result is recorded as “no binding”.
Take “TGCCTGCAGGTCGACGATGGGTGTGATTTTGGTAATTTTCATTACACAAAAGACCAAAGCTTCATAAACTCCCAAAATACCTTTAAATTTTTTCTATAAATTTTTAAAAAATTTCAAAAGTTGGAACAGAACTTGCTTGTAAACTTCACATAAACGCAAAAGTTTTTTAAAGCCAAAGCGTTAAATTTTTTAAAGCAATATTTTATAAAGGATTTAAGA (double strand) [flgE promoter]”: the binding entry was “no binding”.
The value for “TGCCTGCAGGTCGACGATTGCAGATGCAAACATTAAAAATCCTTTAAATTTAGAATTCTTAGGTCATTTAAGCGCTTCTAAAGATGTAAGTGGTAGTATTAAAAAAAGAACTTTATTTAGCGATGAAAACACAGCCTCAAGTGATGAGATTAAAGCCCTAGCTTCCAAGCTTTTATATAGATTGGAACGGAAAGTGCTTGATA (double strand) [fliA promoter]” was “binds”.
“TGGATTCTTCCTTTAATCTATTGTTGATGATAGATCAAGCAAGAAGTGTTCCAAGTAAGTTAAGAAGCGTAAAAGCTTAAGCTAGTTGATCCAAATTTCTTTTCTTTGACTTTTTGAAAATTTTGGATCGTCGACCTGCAGGCA (double strand) [PflgI fragment 3]”: the binding result is listed as “binds”.
As to “TTCTTTGACTTTTTGAAAATTTTGGATTTTTTCGGGAGTTTTTATGGTTGAGTGGTGTTCAAAAATGATTAAATTTAAAGTCTTTAAATCTAAATTTTCTATCGTCGACCTGCAGGCA (double strand) [PflgI fragment 6]”, the binding entry is “no binding”.
Take “TTTAAATCCTTTTAAATAATTTCAAACTCATCCATGAGCTTGTTAAATGCTATATCGTTACTTTTTTTAAAAATTTATACCTTAAACTAAAAAATTATAAATATCGCATTTTAATTGGAATCTGCAAATAAAAATTTCAAGCCACTGTTTATAAAATGTCAAGTATATTAATAAATACTCTCTTTCATCTTCAATTATCGTCGACCTGCAGGCA (double strand) [flaA promoter]”: the binding entry is recorded as “no binding”.
